Reference: publication doi:10.1101/2022.10.13.511954 (bioRxiv, 2022)
Where two headings read alike, the source gives them in different places.

Experiments:
[1] = biological target: T1, (MBP)2-WRC, human WAVE regulatory complex (human, UniProt Q7L576 1-1253; Q9Y2A7 1-1128; Q92558 1-178; Q9NYB9 1-158; Q8WUW1 1-75); assay: pull-down
[2] = biological target: T1, (MBP)2-WRC, human WAVE regulatory …; assay: pull-down; remark: listed apart in the source

B1: GST-tagged cytoplasmic domain of DCC (GST-DCC^cyto) (domain or fragment, human, UniProt P43146 1123-1447, looked up)
chain: RRSSAQQRKKRATHSAGKRKGSQKDLRPPDLWIHHEEMEMKNIEKPSGTDPAGRDSPIQSCQDLTPVSHSQSETQLGSKSTSHSGQDTEEAGSSMSTLERSLAARRAPRAKLMIPMDAQSNNPAVVSAIPVPTLESAQYPGILPSPTCGYPHPQFTLRPVPFPTLSVDRGFGAGRSQSVSEGPTTQQPPMLPPSQPEHSSSEEAPSRTIPTACVRPTHPLRSFANPLLPPPMSAIEPKVPYTPLLSQPGPTLPKTHVKTASLGLAGKARSPLLPVSVPTAPEVSEESHKPTEDSANVYEQDDLSEQMASLEGLMKQLNAITGSAF
- binding result [1]: binds

B2: GST-DCC^ΔWIRS-cyto (domain or fragment, human, UniProt P43146 1123-1447, looked up)
chain: RRSSAQQRKKRATHSAGKRKGSQKDLRPPDLWIHHEEMEMKNIEKPSGTDPAGRDSPIQSCQDLTPVSHSQSETQLGSKSTSHSGQDTEEAGSSMSTLERSLAARRAPRAKLMIPMDAQSNNPAVVSAIPVPTLESAQYPGILPSPTCGYPHPQFTLRPVPFPTLSVDRGFGAGRSQSVSEGPTTQQPPMLPPSQPEHSSSEEAPSRTIPTACVRPTHPLRAAANPLLPPPMSAIEPKVPYTPLLSQPGPTLPKTHVKTASLGLAGKARSPLLPVSVPTAPEVSEESHKPTEDSANVYEQDDLSEQMASLEGLMKQLNAITGSAF
- binding result [2]: binds

B3: GST-DCC^R1343H-cyto (domain or fragment, human, UniProt P43146 1123-1447, looked up)
chain: RRSSAQQRKKRATHSAGKRKGSQKDLRPPDLWIHHEEMEMKNIEKPSGTDPAGRDSPIQSCQDLTPVSHSQSETQLGSKSTSHSGQDTEEAGSSMSTLERSLAARRAPRAKLMIPMDAQSNNPAVVSAIPVPTLESAQYPGILPSPTCGYPHPQFTLRPVPFPTLSVDRGFGAGRSQSVSEGPTTQQPPMLPPSQPEHSSSEEAPSRTIPTACVRPTHPLHSFANPLLPPPMSAIEPKVPYTPLLSQPGPTLPKTHVKTASLGLAGKARSPLLPVSVPTAPEVSEESHKPTEDSANVYEQDDLSEQMASLEGLMKQLNAITGSAF
- binding result [2]: binds
